The assay addresses GST-Rheb protein (UniProt Q15382). Nature of the assay: BLI. For orientation: Biolayer interferometry detects binding as a change in optical thickness at a sensor tip.

We go through one substance from paper PMC11192940.

Chain of GST-Rheb protein (Q15382 1-169): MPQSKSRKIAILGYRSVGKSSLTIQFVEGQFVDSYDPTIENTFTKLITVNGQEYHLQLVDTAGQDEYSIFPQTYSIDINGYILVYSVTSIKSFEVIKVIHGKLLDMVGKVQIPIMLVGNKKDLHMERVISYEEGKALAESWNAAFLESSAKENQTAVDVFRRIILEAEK

A word on the Kd: it is the equilibrium constant for the complex coming apart. On to “His-IL-37d, recombinant human IL-37d protein with a TAT peptide (pET-22b-TAT-his-IL-37d; mature IL-37d 21–197aa) (from UniProt Q9NZH6-4 21-197)”, for which the dissociation constant Kd came to 54.2 nM. That is a double-digit nanomolar value.
